Results: publication doi:10.64898/2025.12.17.694860

Molecular target: Trypanosoma brucei enolase (Trypanosoma brucei)
Assay: SEC

Trypanosoma brucei enolase (enzyme)
stoichiometry N: 2
